Measured values reported in US20080260750A1 (MCGILL UNIVERSITY, published 2008).

T1: ACC-3D10.5 acetylcholine-gated chloride channel subunit (C. elegans, UniProt G5EDN0 20-517)
T1 sequence: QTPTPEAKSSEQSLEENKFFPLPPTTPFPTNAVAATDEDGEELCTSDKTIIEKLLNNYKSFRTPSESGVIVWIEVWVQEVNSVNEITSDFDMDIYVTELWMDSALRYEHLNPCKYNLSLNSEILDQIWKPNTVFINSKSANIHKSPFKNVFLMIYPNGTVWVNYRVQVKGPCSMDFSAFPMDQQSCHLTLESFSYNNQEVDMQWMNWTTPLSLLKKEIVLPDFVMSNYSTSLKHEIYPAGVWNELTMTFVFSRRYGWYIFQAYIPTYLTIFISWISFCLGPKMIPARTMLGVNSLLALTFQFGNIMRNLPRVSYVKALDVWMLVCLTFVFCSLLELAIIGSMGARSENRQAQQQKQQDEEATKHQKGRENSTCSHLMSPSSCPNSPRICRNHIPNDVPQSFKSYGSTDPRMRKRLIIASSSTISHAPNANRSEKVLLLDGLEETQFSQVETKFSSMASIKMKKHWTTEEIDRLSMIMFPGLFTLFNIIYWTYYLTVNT

B1: ACC-2D6.3 acetylcholine-gated chloride channel subunit (receptor)
chain: DYSELVHSAELVSSSSYIHHKTNKKPDNCTRDTDIIDRLLNGTGYNKFRIPQEEGMTVVVEIWIQAITSIDELTNDFDMDIYITETWLDPALNFQTMTPCKGNLSLNHQVLDRLWTPNSCFINSKVAQIHNSPFRSVFLMLFPNGTVMVNYRVRVKGPCSLDLSNFPLDLQKCSLIYESFNYNRQEVEMRWSDAEHPVFNLSKIMLPDFDLFEIQTERRQEPYPAGMWDELHVTIIFERRFIWYFMQAYLPTYLTIFISWISFSLGSRAIPARTMLGVNSLLAIVFSFGNIMRNLPRVSYIKGIDVWMLVSMTFIFCSLLELAIVGFMVRDETVAKKKQQKKISGNISREESPHGIISERRFMFPPGCSESSKSLSSCTSGWTPERIDSISSVMFPFSFFVFNIIYWFYYIHRKEIIKQNLINRVDG
notes: Expressed from cRNA in Xenopus oocytes; also called ACC-2D6.3 receptor; ACC-2D6.3 channel
B2: ACC-4E9.9 acetylcholine-gated chloride channel subunit (receptor)
chain: LLRSLEDDSNECMFNCPKRARNVSVPHTEKTCMGDDAIIAQILDGYNKLDLPGGGHVVVSIEIWVQEVSKIIEITSEFELDIYVTERWTDPSLAYSHLNPCKSNMSVDGATILNKIWNPHACFVNSKLANIHESPFKNIFLQIYSNGSIWHNYRIKLTGPCSSTLRTFPIDQQRCMLFYESFTHNTDQVKMEWITTVPPITILKGNITLPDYVLVDFSSSSELRLYPPGIFNELIATFTFQRLYGFYILQVYVPAYISVFISWVSFTLGAEQIPSRTTVGVNSLLALTFQFGAVVNNLPKTSDVKAIDVWILSSMAFIFASLIELAVVGYLSRDGQHGSIKCRCSWLCMNCKDWTALKIDQMSSIVFPVSFLAFNIWYWFIFLGKLLVRTI
B3: ACC-1G6.4 acetylcholine-gated chloride channel subunit (receptor)
chain: QSLDNCANDTEIINALLKDSYNKHYIPSHPTHVRVDMWVQEVTSVSELTQDFEIDLYINEFWEDPALVYEDMNPCKRNISFDDKVLQRLWLPNTCFINSKSAAIHESPFKNVFLMVFSNGTLWTNYRMKLTGPCDMKLKRFPFDKQKCYLTFESFNYNTGEVRMQWNQPYPVILLKRIELPDFKLVNFSVIAVEQMYPAGWWDELTVAFVFERRYGWYVLQGYIPTMVTIVISWISFYLGPRAIPARTMLGVNSLLAMTFQFGNIIRNLPRVSYVKAIDVWMLSGMLFIFLSLLELAVVGFMSRNEGLPPKVKKRKRQEDDDEGFSWKSMQTSPHLELRQFWVDKRVNSLRNDSAVPPVEDYAPMELEQPYQNITKRREKRKWMSGLRKKWRAMRELRPETVDFYSAIFFPTAYMLFNISYWSFYLTSLSEYFDEDVNIDQP
notes: Expressed from cRNA in Xenopus oocytes; also called ACC-1G6.4 receptor; ACC-1G6.4 channel

Experiments:
[1] = target: T1, ACC-3D10.5 acetylcholine-gated chloride …; assay: co-expression in Xenopus oocytes, two-electrode voltage clamp (inferred from loss of the ACh response)
Procedure: (§1) Oocytes were injected with 40 nl of cRNA using the Nanoject system (Drummond Scientific, Broomall, Pa., USA). Injected oocytes were incubated at 20° C. in ND96 supplemented with 100 mg/ml gentamycin and 550 mg/ml pyruvate. Oocytes were allowed to express cRNA for two days before measurements were taken.

[2] = target: B1; assay: as above
Procedure: as §1

[3] = target: T1, ACC-3D10.5 acetylcholine-gated chloride …; assay: co-expression in Xenopus oocytes, two-electrode voltage clamp (inferred from changed desensitization, EC50 and Hill coefficient for ACh)
Procedure: as §1

Binder: B1
binding result [1]: binds

Binder: B2
binding result [2]: binds

Binder: B3
binding result [3]: binds
